Results reported in the Human Domainome abundance scans (Beltran et al. 2025).
± gives the uncertainty stated by the source.

B1: Tripartite motif-containing protein 6, residues 93 to 134; numbered along this chain, Q9C030 (parent)
chain: KAVLCADHGEKLQLFCQEDGKVICWLCERSQEHRGHHTFLVE

Variants of: B1
Assay: abundance fitness (aPCA) (normalised: wild type 0, dead -1); higher = more abundant; growth selection in yeast, the domain comes from the species named
Settings: Homo sapiens

Q: With KAVLCADHGEKLQLFCQEDGKVHCWLCERSQEHRGHHTFLVE [I23H] as the variant, how does the abundance fitness read?
A: The abundance fitness was -0.202 ± 0.11.

Q: Which abundance fitness does the source give for KAVLCADHGEKLQLFCQEDGKVWCWLCERSQEHRGHHTFLVE [I23W] here?
A: The abundance fitness was -0.483 ± 0.11.

Q: For KAVLCADHGEKLQLFCQEDGKVECWLCERSQEHRGHHTFLVE [I23E], which abundance fitness is on record?
A: The abundance fitness was -0.581 ± 0.13.

Q: Which abundance fitness does the source give for KAVLCADHGEKLQLFCQEDGKVNCWLCERSQEHRGHHTFLVE [I23N] here?
A: The abundance fitness was -0.091 ± 0.16.

Q: For KAVLCADHGEKLQLFCQEDGKVRCWLCERSQEHRGHHTFLVE [I23R], which abundance fitness is on record?
A: Its abundance fitness is -0.34 ± 0.063.

Q: Which abundance fitness does the source give for KAVLCADHGEKLQLFCQEDGKVACWLCERSQEHRGHHTFLVE [I23A] here?
A: The abundance fitness was -0.463 ± 0.091.

Q: For KAVLCADHGEKLQLFCQEDGKVGCWLCERSQEHRGHHTFLVE [I23G], which abundance fitness is on record?
A: Its abundance fitness is -0.346 ± 0.048.

Q: For KAVLCADHGEKLQLFCQEDGKVVCWLCERSQEHRGHHTFLVE [I23V], which abundance fitness is on record?
A: The abundance fitness was -0.168 ± 0.091.

Q: Which abundance fitness does the source give for KAVLCADHGEKLQLFCQEDGKVSCWLCERSQEHRGHHTFLVE [I23S] here?
A: The abundance fitness was -0.579 ± 0.098.

Q: With KAVLCADHGEKLQLFCQEDGKVQCWLCERSQEHRGHHTFLVE [I23Q] as the variant, how does the abundance fitness read?
A: The abundance fitness was -0.842 ± 0.2.

Q: With KAVLCADHGEKLQLFCQEDGKVLCWLCERSQEHRGHHTFLVE [I23L] as the variant, how does the abundance fitness read?
A: Its abundance fitness is -0.361 ± 0.074.

Q: Which abundance fitness does the source give for KAVLCADHGEKLQLFCQEDGKVICRLCERSQEHRGHHTFLVE [W25R] here?
A: Its abundance fitness is 0.173 ± 0.038.

Q: For KAVLCADHGEKLQLFCQEDGKVICILCERSQEHRGHHTFLVE [W25I], which abundance fitness is on record?
A: Its abundance fitness is -0.024 ± 0.12.

Q: For KAVLCADHGEKLQLFCQEDGKVICLLCERSQEHRGHHTFLVE [W25L], which abundance fitness is on record?
A: The abundance fitness was -0.025 ± 0.041.

Q: With KAVLCADHGEKLQLFCQEDGKVICGLCERSQEHRGHHTFLVE [W25G] as the variant, how does the abundance fitness read?
A: Its abundance fitness is -0.01 ± 0.041.

Q: For KAVLCADHGEKLQLFCQEDGKVICALCERSQEHRGHHTFLVE [W25A], which abundance fitness is on record?
A: The abundance fitness was 0.118 ± 0.044.

Q: Which abundance fitness does the source give for KAVLCADHGEKLQLFCQEDGKVICPLCERSQEHRGHHTFLVE [W25P] here?
A: The abundance fitness was -0.008 ± 0.074.

Q: For KAVLCADHGEKLQLFCQEDGKVICVLCERSQEHRGHHTFLVE [W25V], which abundance fitness is on record?
A: The abundance fitness was -0.033 ± 0.042.

Q: For KAVLCADHGEKLQLFCQEDGKVICCLCERSQEHRGHHTFLVE [W25C], which abundance fitness is on record?
A: The abundance fitness was 0.026 ± 0.051.

Q: For KAVLCADHGEKLQLFCQEDGKVICQLCERSQEHRGHHTFLVE [W25Q], which abundance fitness is on record?
A: The abundance fitness was 0.12 ± 0.05.

Q: With KAVLCADHGEKLQLFCQEDGKVICNLCERSQEHRGHHTFLVE [W25N] as the variant, how does the abundance fitness read?
A: The abundance fitness was 0.11 ± 0.079.

Q: For KAVLCADHGEKLQLFCQEDGKVICHLCERSQEHRGHHTFLVE [W25H], which abundance fitness is on record?
A: The abundance fitness was 0.12 ± 0.056.

Q: With KAVLCADHGEKLQLFCQEDGKVICELCERSQEHRGHHTFLVE [W25E] as the variant, how does the abundance fitness read?
A: The abundance fitness was 0.047 ± 0.048.

Q: For KAVLCADHGEKLQLFCQEDGKVICDLCERSQEHRGHHTFLVE [W25D], which abundance fitness is on record?
A: Its abundance fitness is 0.067 ± 0.11.

Q: Which abundance fitness does the source give for KAVLCADHGEKLQLFCQEDGKVICMLCERSQEHRGHHTFLVE [W25M] here?
A: The abundance fitness was 0.135 ± 0.058.

Q: With KAVLCADHGEKLQLFCQEDGKVICSLCERSQEHRGHHTFLVE [W25S] as the variant, how does the abundance fitness read?
A: Its abundance fitness is 0.068 ± 0.053.

Q: With KAVLCADHGEKLQLFCQEDGKVICTLCERSQEHRGHHTFLVE [W25T] as the variant, how does the abundance fitness read?
A: Its abundance fitness is 0.094 ± 0.052.

Q: With KAVLCADHGEKLQLFCQEDGKVICKLCERSQEHRGHHTFLVE [W25K] as the variant, how does the abundance fitness read?
A: Its abundance fitness is 0.211 ± 0.053.

Q: For KAVLCADHGEKLQLFCQEDGKVICFLCERSQEHRGHHTFLVE [W25F], which abundance fitness is on record?
A: Its abundance fitness is 0.023 ± 0.078.

Q: For KAVLCADHGEKLQLFCQEDGKVICWLCERPQEHRGHHTFLVE [S30P], which abundance fitness is on record?
A: The abundance fitness was -0.7 ± 0.13.

Q: With KAVLCADHGEKLQLFCQEDGKVICWLCERQQEHRGHHTFLVE [S30Q] as the variant, how does the abundance fitness read?
A: The abundance fitness was 0.022 ± 0.11.

Q: With KAVLCADHGEKLQLFCQEDGKVICWLCERIQEHRGHHTFLVE [S30I] as the variant, how does the abundance fitness read?
A: The abundance fitness was 0.167 ± 0.39.

Q: With KAVLCADHGEKLQLFCQEDGKVICWLCERCQEHRGHHTFLVE [S30C] as the variant, how does the abundance fitness read?
A: Its abundance fitness is -0.104 ± 0.11.

Q: Which abundance fitness does the source give for KAVLCADHGEKLQLFCQEDGKVICWLCERMQEHRGHHTFLVE [S30M] here?
A: The abundance fitness was 0.026 ± 0.081.

Q: Which abundance fitness does the source give for KAVLCADHGEKLQLFCQEDGKVICWLCERKQEHRGHHTFLVE [S30K] here?
A: The abundance fitness was -0.307 ± 0.11.

Q: For KAVLCADHGEKLQLFCQEDGKVICWLCERHQEHRGHHTFLVE [S30H], which abundance fitness is on record?
A: The abundance fitness was -0.209 ± 0.23.

Q: With KAVLCADHGEKLQLFCQEDGKVICWLCERFQEHRGHHTFLVE [S30F] as the variant, how does the abundance fitness read?
A: The abundance fitness was -0.575 ± 0.18.

Q: Which abundance fitness does the source give for KAVLCADHGEKLQLFCQEDGKVICWLCERNQEHRGHHTFLVE [S30N] here?
A: Its abundance fitness is -0.142 ± 0.093.

Q: For KAVLCADHGEKLQLFCQEDGKVICWLCERRQEHRGHHTFLVE [S30R], which abundance fitness is on record?
A: The abundance fitness was -0.168 ± 0.061.

Q: For KAVLCADHGEKLQLFCQEDGKVICWLCERGQEHRGHHTFLVE [S30G], which abundance fitness is on record?
A: Its abundance fitness is -0.135 ± 0.042.

Q: Which abundance fitness does the source give for KAVLCADHGEKLQLFCQEDGKVICWLCEREQEHRGHHTFLVE [S30E] here?
A: Its abundance fitness is -0.148 ± 0.066.

Q: Which abundance fitness does the source give for KAVLCADHGEKLQLFCQEDGKVICWLCERTQEHRGHHTFLVE [S30T] here?
A: Its abundance fitness is -0.15 ± 0.18.

Q: Which abundance fitness does the source give for KAVLCADHGEKLQLFCQEDGKVICWLCERAQEHRGHHTFLVE [S30A] here?
A: Its abundance fitness is -0.016 ± 0.063.

Q: Which abundance fitness does the source give for KAVLCADHGEKLQLFCQEDGKVICWLCERDQEHRGHHTFLVE [S30D] here?
A: Its abundance fitness is 0.002 ± 0.39.

Q: With KAVLCADHGEKLQLFCQEDGKVICWLCDRSQEHRGHHTFLVE [E28D] as the variant, how does the abundance fitness read?
A: Its abundance fitness is -0.101 ± 0.087.

Q: For KAVLCADHGEKLQLFCQEDGKVICWLCMRSQEHRGHHTFLVE [E28M], which abundance fitness is on record?
A: The abundance fitness was -0.326 ± 0.074.

Q: Which abundance fitness does the source give for KAVLCADHGEKLQLFCQEDGKVICWLCIRSQEHRGHHTFLVE [E28I] here?
A: Its abundance fitness is -0.414 ± 0.17.

Q: With KAVLCADHGEKLQLFCQEDGKVICWLCGRSQEHRGHHTFLVE [E28G] as the variant, how does the abundance fitness read?
A: Its abundance fitness is -0.197 ± 0.045.

Q: With KAVLCADHGEKLQLFCQEDGKVICWLCPRSQEHRGHHTFLVE [E28P] as the variant, how does the abundance fitness read?
A: Its abundance fitness is -0.376 ± 0.075.

Q: With KAVLCADHGEKLQLFCQEDGKVICWLCLRSQEHRGHHTFLVE [E28L] as the variant, how does the abundance fitness read?
A: Its abundance fitness is -0.272 ± 0.057.

Q: For KAVLCADHGEKLQLFCQEDGKVICWLCSRSQEHRGHHTFLVE [E28S], which abundance fitness is on record?
A: The abundance fitness was -0.116 ± 0.059.

Q: For KAVLCADHGEKLQLFCQEDGKVICWLCHRSQEHRGHHTFLVE [E28H], which abundance fitness is on record?
A: Its abundance fitness is -0.481 ± 0.11.

Q: With KAVLCADHGEKLQLFCQEDGKVICWLCTRSQEHRGHHTFLVE [E28T] as the variant, how does the abundance fitness read?
A: Its abundance fitness is 0.059 ± 0.099.

Q: For KAVLCADHGEKLQLFCQEDGKVICWLCKRSQEHRGHHTFLVE [E28K], which abundance fitness is on record?
A: Its abundance fitness is -0.062 ± 0.066.

Q: Which abundance fitness does the source give for KAVLCADHGEKLQLFCQEDGKVICWLCCRSQEHRGHHTFLVE [E28C] here?
A: Its abundance fitness is -0.494 ± 0.14.

Q: Which abundance fitness does the source give for KAVLCADHGEKLQLFCQEDGKVICWLCVRSQEHRGHHTFLVE [E28V] here?
A: The abundance fitness was -0.19 ± 0.066.

Q: With KAVLCADHGEKLQLFCQEDGKVICWLCQRSQEHRGHHTFLVE [E28Q] as the variant, how does the abundance fitness read?
A: Its abundance fitness is -0.124 ± 0.061.

Q: Which abundance fitness does the source give for KAVLCADHGEKLQLFCQEDGKVICWLCYRSQEHRGHHTFLVE [E28Y] here?
A: Its abundance fitness is -0.362 ± 0.11.

Q: For KAVLCADHGEKLQLFCQEDGKVICWLCARSQEHRGHHTFLVE [E28A], which abundance fitness is on record?
A: The abundance fitness was -0.218 ± 0.053.

Q: For KAVLCADHGEKLQLFCQEDGKVICWLCWRSQEHRGHHTFLVE [E28W], which abundance fitness is on record?
A: Its abundance fitness is -0.319 ± 0.079.
